Results taken from the supplement of paper PMC6757056.
± gives the standard deviation of the averaged measurements.

B1: library; a variant is named by its letters at N, in order (parent)
chain: GCUGUCACCGGUGUAUUACCCUAGUGGUCGACCGGUCUGAUGAGUCUNNNNNNAGACGAAACAGC

Columns and labels:
[1] = variants of: B1; experiment: FACS-Seq fitted mean relative fluorescence mCherry/BFP without ligand (log10 relative fluorescence); ligand: hypoxanthine (xanthine aptamer); higher = higher reporter protein expression; settings: HEK293T, ligand present: no
How it was run: (§1)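 Fluorescence is reported as a normalized fitted mean of sorted-bin read counts. Lentivirally transduced HEK293T libraries (mCherry ribozyme-switch reporter, EF1α-BFP marker) were enriched, treated with or without ligand for 48 h, and sorted into 6 mCherry/BFP bins for MiSeq sequencing of PCR-amplified genomic DNA. The normal fit was on log10(mCherry/BFP), scaled to five spiked-in control ribozymes.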

[2] = variants of: B1; experiment: normalized RNA/DNA level with ligand (relative to sTRSVctl = 100) (log10 (% of sTRSVctl)); ligand: hypoxanthine (xanthine aptamer); higher = less ribozyme self-cleavage, higher mRNA level; settings: ligand concentration (+) RNA-Seq: 5 mM, HEK293T, reporter: mCherry (pCS4076), ligand present: yes
How it was run: (§2)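 Library plasmids encoding reporter-linked ribozyme switches (mCherry, or eGFP for some folinic acid experiments) were transfected into HEK293T at 4 µg per 6-well well. Ligand, when used, was added 1 h before transfection. Total RNA was extracted with EDTA 72 h later, then reverse-transcribed, amplified, barcoded and sequenced. RNA level was RNA reads over DNA reads, divided by a spiked-in non-cleaving control (or the top 25 sequences), ×100, log10; only sequences with ≥100 DNA reads were kept.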

[3] = variants of: B1; experiment: normalized RNA/DNA level without ligand (relative to sTRSVctl = 100) (log10 (% of sTRSVctl)); ligand: hypoxanthine (xanthine aptamer); higher = less ribozyme self-cleavage, higher mRNA level; settings: HEK293T, reporter: mCherry (pCS4076), ligand present: no
How it was run: as §2

[4] = variants of: B1; experiment: FACS-Seq fitted mean relative fluorescence mCherry/BFP with ligand (log10 relative fluorescence); ligand: hypoxanthine (xanthine aptamer); ligand concentration (+) FACS-Seq: 5 mM; higher = higher reporter protein expression; settings: HEK293T, ligand present: yes
How it was run: as §1

Variant | FACS-Seq fitted mean (log10) [1] | normalized RNA/DNA level with ligand (log10) [2] | normalized RNA/DNA level without ligand (log10) [3] | FACS-Seq fitted mean (log10) [4]
UUUGUG | 0.449 ± 0.0072 | 1.954 ± 0.015 | 1.76 ± 0.031 | 0.537 ± 0.024
GUUGUU | 0.56 ± 0.026 | 1.969 ± 0.0045 | 1.9 ± 0.029 | 0.67542 ± 0.00062
AUUUAA | 0.629 ± 0.027 | 1.901 ± 0.019 | 1.81 ± 0.051 | 0.649 ± 0.015
GUUUAA | 0.00874 ± 0.0085 | 1.917 ± 0.0057 | 1.83 ± 0.03 | 0.204 ± 0.078
CUUUAG | 0.52 ± 0.017 | 2.02 ± 0.036 | 1.808 ± 0.017 | 0.386 ± 0.085
GUUUAG | 0.256 ± 0.013 | 1.81 ± 0.023 | 1.464 ± 0.013 | 0.65 ± 0.013
CUUUAU | 0.0718 ± 0.034 | 1.88 ± 0.098 | 1.78 ± 0.028 | 0.344 ± 0.07
UUUUAU | 0.589 ± 0.097 | 1.96 ± 0.018 | 1.85 ± 0.06 | 0.296 ± 0.011
CUUUCA | 0.608 ± 0.077 | 1.918 ± 0.0052 | 1.89 ± 0.041 | 0.565 ± 0.017
GUUUCC | 0.703 ± 0.042 | 1.95 ± 0.089 | 2.03 ± 0.06 | 0.641 ± 0.02
UUUUCC | -0.155 ± 0.032 | 1.94 ± 0.03 | 1.935 ± 0.013 | 0.362 ± 0.077
AUUUGA | 0.636 ± 0.085 | 1.91 ± 0.033 | 1.6633 ± 0.00044 | 0.602 ± 0.16
UUUUGA | 0.455 ± 0.043 | 1.98 ± 0.031 | 1.63 ± 0.023 | 0.5 ± 0.019
AUUUGC | 0.485 ± 0.047 | 1.91 ± 0.043 | 1.783 ± 0.0061 | 0.704 ± 0.052
GUUUGG | 0.231 ± 0.049 | 1.92 ± 0.03 | 1.57 ± 0.06 | 0.62263 ± 0.00024
AUUUGU | 0.6123 ± 2.1e-06 | 1.923 ± 0.01 | 1.638 ± 0.013 | 0.723 ± 0.041
CUUUUA | 0.647 ± 0.044 | 1.92 ± 0.051 | 1.77 ± 0.043 | 0.318 ± 0.12
GUUUUC | -0.0599 ± 0.0079 | 1.92 ± 0.025 | 1.952 ± 0.01 | -0.0383 ± 0.14
AUUUUG | 0.224 ± 0.041 | 1.933 ± 0.0027 | 1.59 ± 0.083 | 0.466 ± 0.012
GUUUUG | 0.498 ± 0.038 | 1.9 ± 0.084 | 1.567 ± 0.002 | 0.551 ± 0.047

Variant | FACS-Seq fitted mean (log10) [1] | normalized RNA/DNA level with ligand (log10) [2] | normalized RNA/DNA level without ligand (log10) [3] | FACS-Seq fitted mean (log10) [4]
AUUUUU | 0.433 ± 0.019 | 1.93 ± 0.054 | 1.88 ± 0.032 | 0.378 ± 0.044
GUUUUU | 0.142 ± 0.041 | 1.941 ± 0.0034 | 1.93 ± 0.05 | 0.1 ± 0.015
AAAAAC |  | 1.894 ± 0.015 | 1.8 ± 0.021 | 
UAAAAG |  | 1.87 ± 0.025 | 1.627 ± 0.011 | 
CAAAAU |  | 1.88 ± 0.035 | 1.763 ± 0.0036 | 
CAAACA |  | 1.93 ± 0.061 | 1.75 ± 0.039 | 
UAAACA |  | 1.913 ± 0.017 | 1.875 ± 0.015 | 
UAAACC |  | 1.955 ± 0.016 | 1.91 ± 0.0052 | 
AAAACC |  | 1.93 ± 0.033 | 1.876 ± 0.018 | 
CAAACG |  | 1.906 ± 0.0079 | 1.87 ± 0.06 | 
UAAACG |  | 1.9 ± 0.087 | 1.71 ± 0.036 | 
CAAACU |  | 1.94 ± 0.039 | 1.9 ± 0.035 | 
UAAACU |  | 1.94 ± 0.039 | 1.87 ± 0.034 | 
CAAAGA |  | 1.93 ± 0.03 | 1.768 ± 0.0019 | 
UAAAGA |  | 1.891 ± 0.0053 | 1.57 ± 0.021 | 
CAAAGC |  | 1.956 ± 0.01 | 1.77 ± 0.021 | 
AAAAGC |  | 1.9 ± 0.027 | 1.77 ± 0.042 | 
CAAAGG |  | 1.751 ± 0.005 | 1.26 ± 0.062 | 
AAAAUA |  | 1.909 ± 0.018 | 1.777 ± 0.015 | 
AAAAUC |  | 1.94 ± 0.023 | 1.92 ± 0.041 | 
